Measured values published in paper PMC7039449, “FMN-dependent oligomerization of putative lactate oxidase from Pediococcus acidilactici” (PLoS ONE, 2020).

Assays:
PaLCTO = molecular target: T1, PaLCTO (Pediococcus acidilactici, UniProt E0NE46); experiment: X-ray crystallography, […] Å (refolded with FMN: 6RHS, […] Å); SEC; type: binding; settings: FMN in active site; FMN addition turns apo monomer into tetramer
T1 construct: gene lctO; recombinant in E. coli, pNH-TrxT, N-terminal thioredoxin/His tag cut with TEV; 39 kDa monomer, FMN-containing homotetramer (158 kDa)
T1 sequence (E0NE46 1-369): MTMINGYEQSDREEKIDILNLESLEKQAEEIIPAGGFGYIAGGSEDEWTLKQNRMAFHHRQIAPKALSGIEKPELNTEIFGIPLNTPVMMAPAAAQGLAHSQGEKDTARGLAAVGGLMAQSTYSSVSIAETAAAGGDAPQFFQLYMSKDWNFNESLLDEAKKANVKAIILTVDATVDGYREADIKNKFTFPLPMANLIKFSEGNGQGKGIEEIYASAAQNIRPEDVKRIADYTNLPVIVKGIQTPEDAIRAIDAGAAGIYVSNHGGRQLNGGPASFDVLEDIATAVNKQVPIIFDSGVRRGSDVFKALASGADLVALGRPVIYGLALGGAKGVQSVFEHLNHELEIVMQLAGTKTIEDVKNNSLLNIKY

[1] = molecular target: the molecule itself; experiment: SEC; analytical SEC of the yellow, FMN-containing fraction; Superdex 200 Increase 10/300 calibrated with Bio-Rad standards; 30 mM Hepes pH 7.5, 350 mM NaCl, 0.5 mM TCEP
purified protein = substrate: C[C@H](O)C(=O)O; experiment: purified protein; settings: pH 6.5 (DMGA buffer), 37 °C, FMN added, air, L-lactate 0.2-2.0 mM, in-house recombinant enzyme
[2] = molecular target: the molecule itself; experiment: SEC; recombinant AvLCTO, data not shown

Cc1cc2nc3c(=O)[nH]c(=O)nc-3n(C[C@H](O)[C@H](O)[C@H](O)COP(=O)(O)O)c2cc1C [FMN]
X-ray crystallography, 1.9 Å (refolded with FMN: 6RHS, 2.6 Å); SEC (PaLCTO): The hydrogen bonding network between FMN and the surrounding residues contains in total twelve interactions

B1: Pediococcus acidilactici lactate oxidase (enzyme)
chain: T1 sequence (E0NE46 1-369)
notes: putative L-lactate oxidase of Pediococcus acidilactici DSM 20284, Uniprot E0NE46; gene cloned from genomic DNA into pNH-TrxT; theoretical monomer mass 39 kDa; The same polypeptide without FMN (colourless fraction, or deflavinated) is a monomer that lacks secondary structure by CD; also called PaLCTO; WT PaLCTO; source: E. coli BL21 (DE3), purified (Ni-NTA, TEV cleavage, second Ni-NTA, SEC); not …
stoichiometry N [1]: 4

B2: Aerococcus viridans lactate oxidase (enzyme)
chain: MNNNDIEYNAPSEIKYIDVVNTYDLEEEASKVVPHGGFNYIAGASGDEWTKRANDRAWKHKLLYPRLAQDVEAPDTSTEILGHKIKAPFIMAPIAAHGLAHTTKEAGTARAVSEFGTIMSISAYSGATFEEISEGLNGGPRWFQIYMAKDDQQNRDILDEAKSDGATAIILTADSTVSGNRDRDVKNKFVYPFGMPIVQRYLRGTAEGMSLNNIYGASKQKISPRDIEEIAGHSGLPVFVKGIQHPEDADMAIKRGASGIWVSNHGARQLYEAPGSFDTLPAIAERVNKRVPIVFDSGVRRGEHVAKALASGADVVALGRPVLFGLALGGWQGAYSVLDYFQKDLTRVMQLTGSQNVEDLKGLDLFDNPYGYEY
notes: L-lactate oxidase of Aerococcus viridans, cloned from genomic DNA of strain DSM 20340; also called AvLCTO; recombinant AvLCTO; source: E. coli BL21 (DE3), purified
Km (purified protein): 520 ± 50 µM
stoichiometry N [2]: 4
